# In patent US5723579A, “Fibrinogen binding peptides” (Bayer Corporation, priority 1996, dated 1998):
# No end group written: not given here.
# Tests used:
# [1] = target: T1, fibrinogen (Homo sapiens, UniProt P02671+P02675+P02679); experiment: Confirmatory binding assay in column chromatographic format: fibrinogen applied to peptide resins, NaCl wash and acid eluate quantified by A280; conditions: for 1 M NaCl Eluate, integration of the absorbance at 280 nm / 2% Acetic Acid Eluate, integration of the absorbance at 280 nm: truncations on A-Totda-Toyopearl, Table 6; for 2% Acetic Acid Eluate, A280: peptide synthesized on A-Totda-Toyopearl, Table 2
# T1 construct: purchased Sigma Chemical Co. (St. Louis, Mo.) and Chromogenix AB (Molndal, Sweden)
# T1 sequence (P02671 20-644 isoform P02671-2 limits assumed): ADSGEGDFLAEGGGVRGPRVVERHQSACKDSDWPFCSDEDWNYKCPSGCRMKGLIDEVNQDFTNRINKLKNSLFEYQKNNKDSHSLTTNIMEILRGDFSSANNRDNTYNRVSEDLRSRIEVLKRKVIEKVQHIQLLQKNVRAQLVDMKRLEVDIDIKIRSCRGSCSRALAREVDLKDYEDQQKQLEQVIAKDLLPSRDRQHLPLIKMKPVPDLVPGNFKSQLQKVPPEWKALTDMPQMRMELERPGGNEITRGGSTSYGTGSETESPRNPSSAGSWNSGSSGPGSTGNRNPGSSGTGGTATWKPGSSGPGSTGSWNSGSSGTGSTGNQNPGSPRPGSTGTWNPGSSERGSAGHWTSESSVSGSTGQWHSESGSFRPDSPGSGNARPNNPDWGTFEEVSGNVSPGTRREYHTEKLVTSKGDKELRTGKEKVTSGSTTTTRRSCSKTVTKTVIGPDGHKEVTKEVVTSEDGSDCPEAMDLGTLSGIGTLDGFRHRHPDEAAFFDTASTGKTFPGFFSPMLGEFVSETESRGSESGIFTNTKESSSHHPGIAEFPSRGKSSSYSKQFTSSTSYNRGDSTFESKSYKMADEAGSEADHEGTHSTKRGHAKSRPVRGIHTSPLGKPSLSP
# T1 sequence (P02675 31-491): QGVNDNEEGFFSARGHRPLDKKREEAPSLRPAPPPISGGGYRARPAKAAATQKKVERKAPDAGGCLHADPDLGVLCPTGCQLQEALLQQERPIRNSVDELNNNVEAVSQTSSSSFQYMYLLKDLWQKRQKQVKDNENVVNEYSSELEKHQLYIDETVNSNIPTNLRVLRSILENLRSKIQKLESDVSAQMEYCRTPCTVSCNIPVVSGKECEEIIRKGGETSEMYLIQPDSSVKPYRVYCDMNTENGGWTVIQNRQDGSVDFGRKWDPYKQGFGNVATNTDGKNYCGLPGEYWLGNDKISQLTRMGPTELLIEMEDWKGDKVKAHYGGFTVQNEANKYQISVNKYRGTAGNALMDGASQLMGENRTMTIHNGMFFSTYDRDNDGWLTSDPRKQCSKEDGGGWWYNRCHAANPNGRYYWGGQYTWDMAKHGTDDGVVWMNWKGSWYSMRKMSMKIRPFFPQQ
# T1 sequence (P02679 27-453): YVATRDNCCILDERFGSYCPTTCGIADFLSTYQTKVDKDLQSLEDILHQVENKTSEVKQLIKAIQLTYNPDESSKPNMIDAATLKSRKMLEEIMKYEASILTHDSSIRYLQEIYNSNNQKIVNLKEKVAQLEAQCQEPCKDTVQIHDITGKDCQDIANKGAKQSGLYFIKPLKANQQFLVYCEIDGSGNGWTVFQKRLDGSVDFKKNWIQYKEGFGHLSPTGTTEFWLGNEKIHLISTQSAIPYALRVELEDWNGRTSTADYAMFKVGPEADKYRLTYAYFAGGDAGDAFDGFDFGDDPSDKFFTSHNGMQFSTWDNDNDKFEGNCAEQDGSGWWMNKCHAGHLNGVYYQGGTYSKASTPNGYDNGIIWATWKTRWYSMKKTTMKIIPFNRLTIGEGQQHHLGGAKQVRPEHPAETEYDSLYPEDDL
# Protocol: Confirmatory binding assays were performed in a column chromatographic format on a microbore HPLC using individual peptide sequences synthesized directly onto the Toyopearl 650M Chelate resin which had been modified with Totda followed by an alanine residue (A-Totda-Toyopearl), at a final substitution density of 0.2 mmole/g resin. […] The endpoint was a dose-dependent increase in the acid eluate in the fibrinogen contactings, and quantification was by integration of the absorbance at 280 nm (Table 2).
# Peptides PLLVPL and FLLVPL, with and without an N-acetylated amino terminus, were synthesized directly onto Ala-Totda-Toyopearl at a density of approximately 0.2 mmole/g resin. The ability of these resins to bind fibrinogen was determined as above. An unblocked (free) amino terminus was required for binding fibrinogen to PLLVPL-A-Totda-Toyopearl (Table 5) (SEQ ID NO:2). Similar results were obtained in a separate experiment by using FLLVPL-A-Totda-Toyopearl (Table 5) (SEQ ID NO:1).
# Truncations from the carboxyl- and amino- termini of PLLVPL and FLLVPL (SEQ ID NOS 2 and 1, respectively) synthesized directly on A-Totda-Toyopearl resin in order to identify the minimum sequence necessary for binding.
# [2] = target: T1, fibrinogen; experiment: Isothermal titration calorimetry of peptide binding to purified fibrinogen; conditions: solution phase binding, soluble peptide; 30° C., 30 mM phosphate buffer, pH 7.0
# Protocol: Isothermal titration colorimetry was performed using either purified, soluble peptides (5 mM) or peptides synthesized directly on A-Totda-Togopearl (1.4mM) and with purified fibrinogen (50 μM) by a modification of the technique of Tyler-Cross et at. (1993). All measurements were performed at 30° C. in 30 mM phosphate buffer, pH 7.0 with an Omega titration colorimeter (Microcal, Inc., Northampton, Mass.).
# Solution phase binding isotherms were performed on the purified soluble peptides and purified fibrinogen by using isothermal titration calorimetry (Table 3). […] A change from P to F at the amino terminus lowered the dissociation constant over 150-fold. PLLVPL (SEQ ID NO:2) bound to approximately 3 to 4 sites per fibrinogen molecule. […] Both peptide binding reactions were endothermic as indicated by the positive enthalpy (ΔH), and were thermodynamically favorable (negative ΔG) under the conditions tested. Unusually high entropic terms indicate a conformational change may be driving the association of peptide with fibrinogen.
# [3] = target: T1, fibrinogen; experiment: Characterization of binding interaction: fibrinogen (25 mg) on 5 ml FLLVPL resin column, binding and elution under varied conditions
# Protocol: Peptide FLLVPL was synthesized directly on A-Totda-Toyopearl at a density of 0.2 mmole/g resin. A column of dimensions 1.0×6.4 cm (approximately 5 ml column volume) was equilibrated with either 10 mM HEPES or 10 mM sodium acetate, pH 6.8, 1.0 mM EGTA and either 0.1, 0.2 or 1.0M NaCl. Fibrinogen (25 mg; 5.0 ml) was applied to the column in 10 mM sodium acetate, pH 6.8 and 1 mM EGTA containing 0.1M NaCl.
# Fibrinogen (25 mg; 5.0 ml) was applied to the column in 10 mM sodium acetate, pH 6.8 and 1 mM EGTA containing 0.1M NaCl.
# No elution of fibrinogen (applied to the column in 10 mM sodium acetate, pH 6.8 and 1 mM EGTA containing 0.1M NaCl) was observed by using the hydrophilic compound, polyethylene glycol (10%). Only approximately 8 percent of the applied fibrinogen was eluted by increasing the pH to 10 with 10 mM sodium borate. Further increases in pH with a linear gradient (pH 6.8 to 12.0) released approximately 25 percent of the fibrinogen.
# In order to assess further the contribution of hydrophobic interactions to the binding mechanism of FLLVPL (SEQ ID NO.:1) to fibrinogen, fibrinogen (25 mg; 5.0 ml) was applied to the peptide under high salt conditions favorable to hydrophobic bonding and release under low ionic strength. The peptide resin was equilibrated with 10 mM sodium acetate, 1.0M NaCl, and 1.0 mM EGTA, pH 6.8. Five milliliters of a solution of fibrinogen (5 mg/ml) in the same buffer was applied to the column, and washed with two column volumes of the same buffer. The resin was then contacted with 10 column volumes of 10 mM sodium acetate, pH 4.0 followed by 2% acetic acid (4 column volumes). […] Low ionic strength and low pH (4.0) released approximately 78.3 percent of the protein. However, only 5% of the applied protein was eluted in a second experiment when the 10 mM sodium acetate, pH 4.0 solution contained 0.1M NaCl. Acid treatment released the remainder of the recovered protein in both experiments.
substance,measurement,setting,value
Phe-Leu-Leu-Val (FLLV; printed: Phe-Leu-Leu-Val) [truncation of FLLVPL on A-Totda-Toyopearl resin],"1 M NaCl Eluate, integration of the absorbance at 280 nm",[1]; 250 μg fibrinogen applied,0.00 ×10^6
same,"2% Acetic Acid Eluate, integration of the absorbance at 280 nm",[1]; 250 μg fibrinogen applied,1.51 ×10^6
same,"1 M NaCl Eluate, integration of the absorbance at 280 nm",[1]; 500 μg fibrinogen applied,0.00 ×10^6
same,"2% Acetic Acid Eluate, integration of the absorbance at 280 nm",[1]; 500 μg fibrinogen applied,1.79 ×10^6
same,"1 M NaCl Eluate, integration of the absorbance at 280 nm",[1]; 1000 μg fibrinogen applied,0.50 ×10^6
same,"2% Acetic Acid Eluate, integration of the absorbance at 280 nm",[1]; 1000 μg fibrinogen applied,4.99 ×10^6
Phe-Ala-Leu-Val- Pro-Leu (FALVPL; not fully specified (C-terminus); printed as Phe-Ala-Leu-Val-Pro-Leu),"2% Acetic Acid Eluate, A280",[1]; 250 μg fibrinogen applied,0.72
same,"2% Acetic Acid Eluate, A280",[1]; 500 μg fibrinogen applied,1.35
same,"2% Acetic Acid Eluate, A280",[1]; 1000 μg fibrinogen applied,2.78
"FLLVPL-NH2 [FLLVPL, Phe-Leu-Leu-Val-Pro-Leu]",Kd,[2],4.5 µM
same,applied protein eluted,"[3]; 10 mM sodium acetate, pH 4.0 containing 0.1M NaCl (second experiment)",5%
same,"applied protein (A280) not interacting with the column, recovered in flow through and wash","[3]; applied in 10 mM sodium acetate, 1.0M NaCl, 1.0 mM EGTA, pH 6.8",Approximately 7.2%
same,release of the applied protein,[3]; elution with ionic detergent (2% sodium cholate),14%
same,release of the applied protein,[3]; elution with nonionic detergent (5% Tween-20) in the binding buffer,40%
same,fibrinogen released,[3]; linear pH gradient (pH 6.8 to 12.0),approximately 25%
same,protein released,"[3]; low ionic strength, 10 mM sodium acetate, pH 4.0, after high salt application",approximately 78.3%
same,applied absorbance (280 nm) that failed to bind the column,"[3]; pH 6.8, 1.0 mM EGTA, column equilibrated with 0.1, 0.2 or 1.0M NaCl",5 to 8%
same,release of fibrinogen,"[3]; pH gradient from 6.8 to 4.0, release at pH 4.2",approximately 66%
same,applied fibrinogen eluted,[3]; pH increased to 10 with 10 mM sodium borate,approximately 8%
"PLLVPL-NH2 [PLLVPL, Pro-Leu-Leu-Val-Pro-Leu]",Kd,[2],688 µM
PALVPL: peptide sequence PALVPL synthesized on A-Totda-Toyopearl (not fully specified (C-terminus)),"2% Acetic Acid Eluate, A280",[1]; 250 μg fibrinogen applied,0.01
same,"2% Acetic Acid Eluate, A280",[1]; 500 μg fibrinogen applied,0.06
same,"2% Acetic Acid Eluate, A280",[1]; 1000 μg fibrinogen applied,0.13
ALLVPL: peptide sequence ALLVPL synthesized on A-Totda-Toyopearl (not fully specified (C-terminus)),"2% Acetic Acid Eluate, A280",[1]; 250 μg fibrinogen applied,0.02
same,"2% Acetic Acid Eluate, A280",[1]; 500 μg fibrinogen applied,0.09
same,"2% Acetic Acid Eluate, A280",[1]; 1000 μg fibrinogen applied,0.12
AALVPL: peptide sequence AALVPL synthesized on A-Totda-Toyopearl (not fully specified (C-terminus)),"2% Acetic Acid Eluate, A280",[1]; 250 μg fibrinogen applied,0.02
same,"2% Acetic Acid Eluate, A280",[1]; 500 μg fibrinogen applied,0.09
same,"2% Acetic Acid Eluate, A280",[1]; 1000 μg fibrinogen applied,0.12
